Reference: publication PMC9814530, “Rapid de novo discovery of peptidomimetic affinity reagents for human angiotensin converting enzyme 2” (Communications Chemistry, 2022)
Where no end group is shown, it is not given here.

These binders were tested against T1, human angiotensin converting enzyme 2 (ACE2), recombinant (human, UniProt Q9BYF1 18-740) (assay: BLI; biotinylated peptide immobilised on streptavidin tips (loaded at 1.0-2.0 uM); protein in solution (ACE2 at 1000, 500, 250, 125 and 62.5 nM); 30 °C, 1000 rpm; 1 x PBS with 0.1% BSA and 0.02% Tween-20; 180 s association; global 1:1 fit; apparent KD). Conditions: both partners purified.
T1 construct: also called soluble ACE2; recombinant ACE2 protein; source: bought: Sino Biological (Catalog number 10108-H08H) for BLI
T1 sequence (Q9BYF1 18-740): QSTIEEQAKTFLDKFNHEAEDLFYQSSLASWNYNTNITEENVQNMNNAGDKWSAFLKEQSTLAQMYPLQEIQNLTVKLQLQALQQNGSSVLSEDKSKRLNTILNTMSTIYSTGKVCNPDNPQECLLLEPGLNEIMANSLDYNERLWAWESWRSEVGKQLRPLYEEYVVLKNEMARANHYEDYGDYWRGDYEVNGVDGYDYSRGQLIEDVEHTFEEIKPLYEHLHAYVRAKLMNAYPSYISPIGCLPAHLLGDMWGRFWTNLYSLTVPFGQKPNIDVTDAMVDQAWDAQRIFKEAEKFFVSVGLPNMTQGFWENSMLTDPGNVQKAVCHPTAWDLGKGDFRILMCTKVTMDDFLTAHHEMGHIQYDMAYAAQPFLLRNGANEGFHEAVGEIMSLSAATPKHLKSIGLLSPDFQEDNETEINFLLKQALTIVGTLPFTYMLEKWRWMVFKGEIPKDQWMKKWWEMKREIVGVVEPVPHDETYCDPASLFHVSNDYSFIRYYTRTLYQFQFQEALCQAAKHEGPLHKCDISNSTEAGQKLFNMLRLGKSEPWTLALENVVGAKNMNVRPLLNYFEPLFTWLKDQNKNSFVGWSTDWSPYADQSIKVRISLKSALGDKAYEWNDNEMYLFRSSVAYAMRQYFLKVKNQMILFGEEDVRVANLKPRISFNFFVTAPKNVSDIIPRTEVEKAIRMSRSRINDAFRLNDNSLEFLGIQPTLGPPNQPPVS

In order of falling Kd:
1. LQWHPAYWFMQVK-NH2 (also: biotinylated, position not given here) [ACE2-binding peptide ABP C8]  36 nM
2. LHKQFGWHWFGFK-NH2 (also: biotinylated, position not given here) [ACE2-binding peptide ABP C3]  35 nM
3. LQRGVFGFPYRVK-NH2 (also: biotinylated, position not given here) [ACE2-binding peptide ABP C7]  26 nM
